As a reminder, the koff is the first-order rate constant of dissociation. What is called kon is a measure of how fast the partners come together.

In the experiment the target is T1, Aβ(1–42) (UniProt P05067 672-713).
T1 construct: also called Aβ42; β-amyloid (Aβ) peptide; source: bought: rPeptide (recombinant Aβ42, Ultrapure)
The experiment in a line: SPR; Aβ42 fibrils immobilised by amine coupling on a COOH5 chip (~5,000 RU), Sensi Q; RI-OR2-TAT injected at 1, 3 and 6 µM in PBS with 0.005% Tween 20 for 5 min at 30 µl/min; empty reference surface subtracted; each concentration fitted separately, 1:1 Langmuir model; apparent. As to conditions: both partners purified. In general terms: In SPR one partner is held on a chip, and binding of the other changes the refractive index at the surface.

B1: RI-OR2-TAT (Ac-rGffvlkGrrrrqrrkkrGy-NH2) (peptide)
peptide: RGFFVLKGRRRRQRRKKRGY
HELM: PEPTIDE1{[ac].[dR].G.[dF].[dF].[dV].[dL].[dK].G.[dR].[dR].[dR].[dR].[dQ].[dR].[dR].[dK].[dK].[dR].G.[dY].[am]}$$$$V2.0
SMILES: CC(=O)N[C@H](CCCNC(=N)N)C(=O)NCC(=O)N[C@H](Cc1ccccc1)C(=O)N[C@H](Cc1ccccc1)C(=O)N[C@@H](C(=O)N[C@H](CC(C)C)C(=O)N[C@H](CCCCN)C(=O)NCC(=O)N[C@H](CCCNC(=N)N)C(=O)N[C@H](CCCNC(=N)N)C(=O)N[C@H](CCCNC(=N)N)C(=O)N[C@H](CCCNC(=N)N)C(=O)N[C@H](CCC(N)=O)C(=O)N[C@H](CCCNC(=N)N)C(=O)N[C@H](CCCNC(=N)N)C(=O)N[C@H](CCCCN)C(=O)N[C@H](CCCCN)C(=O)N[C@H](CCCNC(=N)N)C(=O)NCC(=O)N[C@H](Cc1ccc(O)cc1)C(N)=O)C(C)C
notes: source: synthetic peptide, custom made by Cambridge Peptides (>95% purity)
Regarding B1, the Kd was 0.058 to 0.125 µM, the koff turned out to be 0.00037 s⁻¹ and the on-rate (kon) is 3680 M⁻¹ s⁻¹.
